The source of these data is doi:10.1101/2025.01.31.636011, “Discovery of a distinct BAM complex in the Bacteroidetes” (bioRxiv, 2025).

To fix the notation:
B3: BtBamG (Bt4306) (natural protein, UniProt Q89ZS0 18-542, looked up)
chain: CDDNTGGLGLGMFPGNDQNIKGKLSTFDVTTESVKTGDIYAKTNIGYIGKFTDETFGTYQAGFLAQLNCPDGLTFPEPYKEVTDASGNVISATGRMVVDDKDPENKDVTFIKDGNQIIGNIRAVELYLWYDSYFGDSLTACRLSVYELGGNGKETLNLDNAYYTDINPEDFYDSQNILGTKAYTAVDLSVKDSIRNLSTYVPSVHIAFKEDIATRVGGNILTAARKAKNADKEFNSQLFREAFQGIYVKSDYGDGTVLYIDQPQMNVVYKCYATDSITGKKLQKKDGSGKDSTYYSYRVFATTREVIQANQLKNDPERIDALIKEDKNTYLKSPAGIFTEATLPISDIQNELTGDTLNAVKLTFTNYNQTGDKKFGMAIPSTVMLVRKKFQDSFFKDNKLSDGVSSYLTSHTSSTNQYVFSNITKLVNACIAEKEEAKKNAGSSWDETKWLQENPDWNKVVLIPVLVTYDSSNTTTGQANIIRIQHDLKPGYVRLKGGSLGKTNPDYKLKLEVISTDFGLTTKSN
modifications: tri-acylated lipid anchor on the N-terminal cysteine; O-glycosylation (glycan on Ser309)
notes: also called Bt4306/BamG

Conditions in all cases: both partners purified
For assay [1], the target named is B3. Description: cryo-EM structure; BtBAM complex co-purified through BtBamAhis from B. theta membranes, in DDM, 8 mg/ml; two 3D classes and a composite model.
The target in assay [2] is B3. Description: cryo-EM structure.
For assay [3], the target named is T1, BtBamA (Bt3725) with an N-terminal His7 tag (Bacteroides thetaiotaomicron, UniProt Q8A1E1 20-885).
T1 construct: also called BtBamAhis; BamAhis
T1 sequence (looked up): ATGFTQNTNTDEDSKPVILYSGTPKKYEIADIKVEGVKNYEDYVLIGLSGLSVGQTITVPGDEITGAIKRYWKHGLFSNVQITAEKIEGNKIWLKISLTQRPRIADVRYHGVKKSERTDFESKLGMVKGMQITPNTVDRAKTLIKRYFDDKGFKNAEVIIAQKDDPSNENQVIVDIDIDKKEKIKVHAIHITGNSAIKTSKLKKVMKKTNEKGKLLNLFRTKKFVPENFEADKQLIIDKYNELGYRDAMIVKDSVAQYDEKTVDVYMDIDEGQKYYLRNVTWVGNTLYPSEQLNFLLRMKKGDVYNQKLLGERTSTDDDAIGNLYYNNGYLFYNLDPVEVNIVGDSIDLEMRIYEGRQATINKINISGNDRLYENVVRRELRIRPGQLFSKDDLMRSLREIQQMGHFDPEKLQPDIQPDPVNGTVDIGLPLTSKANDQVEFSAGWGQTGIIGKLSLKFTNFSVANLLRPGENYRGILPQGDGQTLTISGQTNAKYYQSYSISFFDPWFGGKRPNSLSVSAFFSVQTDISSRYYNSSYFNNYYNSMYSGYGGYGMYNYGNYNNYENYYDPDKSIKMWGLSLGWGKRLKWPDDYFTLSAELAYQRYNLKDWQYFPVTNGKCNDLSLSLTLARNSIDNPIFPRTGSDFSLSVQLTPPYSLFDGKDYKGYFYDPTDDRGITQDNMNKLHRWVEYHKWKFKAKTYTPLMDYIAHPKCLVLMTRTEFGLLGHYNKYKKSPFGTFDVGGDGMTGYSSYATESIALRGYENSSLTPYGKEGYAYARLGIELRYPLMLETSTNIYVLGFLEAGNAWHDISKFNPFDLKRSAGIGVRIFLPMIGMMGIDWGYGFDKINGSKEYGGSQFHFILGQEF
Description: cryo-EM structure; BtBAM complex co-purified through BtBamAhis from B. theta membranes, in DDM, 8 mg/ml; two 3D classes and a composite model.

Assay [4] concerns the target T2, PgBamA (PGN_0299) (Porphyromonas gingivalis (endogenous in …, UniProt B2RHH3 20-891)).
T2 construct: also called P. gingivalis BamA; source: endogenous, P. gingivalis expressing His-tagged BamG, membranes solubilised in DDM
T2 sequence: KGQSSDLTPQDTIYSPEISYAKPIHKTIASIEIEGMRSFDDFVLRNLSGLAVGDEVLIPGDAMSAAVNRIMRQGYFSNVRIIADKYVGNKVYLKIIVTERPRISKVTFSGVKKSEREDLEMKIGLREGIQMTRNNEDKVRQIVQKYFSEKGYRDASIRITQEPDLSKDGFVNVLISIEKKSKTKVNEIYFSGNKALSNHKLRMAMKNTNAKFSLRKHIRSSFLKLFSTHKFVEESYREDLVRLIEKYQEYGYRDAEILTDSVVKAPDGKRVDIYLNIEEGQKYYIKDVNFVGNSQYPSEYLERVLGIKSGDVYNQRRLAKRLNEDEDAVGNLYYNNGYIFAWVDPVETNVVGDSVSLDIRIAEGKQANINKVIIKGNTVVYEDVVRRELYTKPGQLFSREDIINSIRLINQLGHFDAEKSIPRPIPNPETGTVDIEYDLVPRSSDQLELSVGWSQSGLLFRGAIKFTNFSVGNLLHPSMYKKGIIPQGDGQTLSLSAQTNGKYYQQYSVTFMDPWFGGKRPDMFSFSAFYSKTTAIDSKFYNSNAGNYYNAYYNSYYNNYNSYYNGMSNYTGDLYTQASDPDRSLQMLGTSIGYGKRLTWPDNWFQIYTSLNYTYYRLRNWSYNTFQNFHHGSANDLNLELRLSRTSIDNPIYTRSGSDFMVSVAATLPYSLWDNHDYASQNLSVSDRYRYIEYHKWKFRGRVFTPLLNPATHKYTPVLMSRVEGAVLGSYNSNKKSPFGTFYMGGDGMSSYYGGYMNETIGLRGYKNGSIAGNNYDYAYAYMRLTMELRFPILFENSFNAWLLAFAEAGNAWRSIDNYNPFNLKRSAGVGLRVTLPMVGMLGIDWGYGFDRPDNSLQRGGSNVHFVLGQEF
Description: cryo-EM structure; PgBAM complex co-purified through C-terminally His-tagged PgBamG from P. gingivalis membranes, in DDM, 4.9 mg/ml.

B1: BtBamI (Bt3612) (natural protein, UniProt Q8A1P7 20-196, looked up)
chain: CSETEEVGKYDNWRARNEAFIDSLANVYATASGRGGLERIEMLTAPGNYIYYKEMEPMTDHVVKAGNPKYTDYVKVYYKGTNILGEYFDGNFKGDNPVVDGKDPSEGDSPTTIFQVSGVITGWGEVLQRMEVGDRWKVYIPWDYAYGSSGTTGILGYSALVFDITLLDFANTEAELK
modifications: O-glycosylation (sites not given)
On to B1, for which, in assay [1], the binding result is “binds”.

B2: BtBamF (Bt4367) (natural protein, UniProt Q89ZL0 23-431, looked up)
chain: QNNTNSPYTRYGYGDLSDQSFGNSKAMGGIAFGLRDGAQINPTNPASYTAIDSLTFLFEGGVSLQNMNISGGGLKLNAKNASFDYLAMQFRLAPWMAMSVGLLPYSNVGYTVSDSQTTDNGLAYSRSFTGDGGLHQMYVGAGVKVLKNLSVGVNASYFWGDITRTRGMFYPGTSSYDSYQRKMVTSISDYKLDFGAQYTQALNKKSSLTIGAVYSPKHKLNNDYTSIVIMGASSSSYGTEYKDVLDATFELPNTFGVGFTYNYDKRLTVGADYSLQQWSKTNFGVVTSDENVRQDFNETFTYCDRTKISVGAEYIPNLIGRSYFAHIKYRLGAYYTTPYYKIDGKKASREYGVTAGFGLPVPRSRSILSISGQFVRVKGLETNMVNENIFRVSIGLTFNERWFFKRRVE
modifications: O-glycosylation (glycan on Ser75)
In the case of B2, the binding result in assay [2] is given as “binds”.
Consider B3, for which the binding result in assay [3] was “binds”.

B4: PgBamG (PGN_1735) with a C-terminal 7His-tag (natural protein)
chain: CDDDLSPIGGSIQPPSDPVSARVDTLEFSVKTIPMGDIYNRTNYTLLGDLTDPEYGDLKADYIMQFKSPRNFKFKYPPKDGKIDSVKLSINYDSWAGDSTSIMKVSIYKINKAIPPSYYSTQELASLLDETQIIASQTFKAGNDSAFHRVRIPLPNEIGQKIYDLSVNNPSVFDTQESFYNNVLGGLYVTTTTGTGVVLSVYNTQMAIFYSYKVAADSTATASETFVNTSESYQVNHIKNSQISHLLQENDSLSCVKSPAGVMTQLTISKEQFTDAFTSNLSSSLAWQIGEAQFNISASKPSEGLMLSPPSYLLLLPQDSVRNFFEQEQTELMQPRTAFLSTIYNIKKREYRFSNISRLLMEHIKNNTEKTPEGKPYITKDLVLVLLPVKRQVAGASNSLYTSQLNNFMFPSGVKLQLGKKNKTARIGVYSMTYTDN
modifications: tri-acylated lipid anchor; O-glycosylation, 7 sites
notes: also called His-tagged BamG; source: P. gingivalis expressing C-terminally His-tagged BamG (homologous recombination), membranes solubilised in DDM; not shown: His7, C-terminal, kept
For the molecule B4, in assay [4], the binding result was “binds”.
